Values of other authors as cited in paper PMC4760235.

Biological target: CD161 (Homo sapiens) (UniProt Q12918)
UniProt Q12918, sequence (Q12918 whole entry): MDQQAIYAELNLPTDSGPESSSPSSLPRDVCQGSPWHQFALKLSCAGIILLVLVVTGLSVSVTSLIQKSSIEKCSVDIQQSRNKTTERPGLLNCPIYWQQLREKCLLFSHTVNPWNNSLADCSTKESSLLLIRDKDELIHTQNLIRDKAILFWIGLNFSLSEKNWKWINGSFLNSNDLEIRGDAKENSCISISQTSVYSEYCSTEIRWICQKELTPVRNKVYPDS

Substance: LLT1 (from UniProt Q9UHP7)
- Kd: 48 µM
